Data as given in the nanobody polyreactivity screen of Harvey et al. (2022).

Test: yeast display, Sf9 membrane polyspecificity reagent, FACS + sequencing; frameworks hold sequencing errors
Summary of the method: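 In a synthetic yeast display library (Saccharomyces cerevisiae BJ5465), nanobody expression was induced with galactose for 36–48 hours. FACS gates were set low and high (top ~1%) using anti-HA fluorescence for expression and streptavidin fluorescence for binding of the Sf9 membrane reagent. Each polyreactivity label is drawn from the gate of origin.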

Sequence	polyreactivity (PSR sort gate)
QVQLVESGGGLVQAGGRLRLSCAASGTIFPLNAMGWYRQAPGKERELVATISSGGSTYYADSVKGRFTISRDNAKNTVYLQMNSLKPEFTAVYYCAADSWVQFEYWGQGTQVTVSS	low polyreactivity
QVQLVESGGGLVQAGGRLRLSCAASGTTAENVMGWYRQAPGKERELVAAISSRGGSTYYADSVKGRFTISRDNAKNTVYLQKNSLKPEDTAVYYCAAEYVSHFSGYRYDYWGQGTHVTVSS	low polyreactivity
QVQLVESGGGLVQAGGRLRLSCAASGTTFFLYAMGWYRQAPGKERELVASISDGSSTNYADSVKVRFTISRDNAKNTVYLQMNSLKPEDTAVYYCAADFERRRYDYWGQGTQVTVSS	low polyreactivity
QVQLVESGGGLVQAGGRLRLSCAASGYIFNYDMGWYRPAPGKERELVAAINYSGRTYYADSVKGRFTISRDNAKNTVYLQMNRLKAEDTAVYYCAARIIVDDVGTKYYYWGQGTQVTVSS	high polyreactivity
QVQLVESGGGLVQAGGRLRLSCAASGYTFSIYDMGWYRPAPGKERELVAAISWSGGSTYYADSVKGRFTISRDHAKNTVYLQMNSLKPEDTAVYYCAAKRHGSEVGRGRDYWGQGTQVTVSS	high polyreactivity
QVQLVESGGGLVQAGGRLRLSCADSGRIFLYYAKGWYRQAPGKEPELVAAISGGGGRTYYADSVKGRFTISRDNAKNTVYLQMNSLKPEDTAVYYWAAGVYTGQHEFDYWGQGTQVTVSS	low polyreactivity
QVQLVESGGGLVQAGGRLRLSCAPSGTTFNPYTMGLYRQAPGKEGELVATITRIGGSTYYADSVKGRFTISRDNAKNTVYLQMNSLKPEDTAVYYCAADHYRSVRWRSNYTYRVNYWGQGTQVTVSS	high polyreactivity
QVQLVESGGGLVQAGGRLRLSCASSGITFWTYAMGWYRQAPGKERELVAAISKSGGSTYYADSVKGRYTISRDNAKNNVYFELNSLKPEDTAVYYCAAKGLRYRDIDYDYWGQGTQVTVSS	low polyreactivity
QVQLVESGGGLVQAGGRLRLSSAASGRTFFGSYAMGWYRQAPGKERELVADIRSGGNTNYADSVKGRFTISRDNAKNTVYLQMNRLKPDDTAVYYCASDGYSIVVYHPDYRYVYWGQGTQLTVSS	low polyreactivity
QVQLVESGGGLVQAGGRLRLTCAASGFTFRYYAMGWYRQAPGKERELVATITRGGSTNYAESVKWRFTISRDNAKNTVYFQMNSLKPEDTAVYYCATGKIYWRGYEYWGQGTQVTVSS	high polyreactivity
QVQLVESGGGLVQAGGRLSLSCAASGITFLGYAMGWYREAPGKDSELVAAISSGGSTYYADSVKGRFTISRDNAKNTVYLQMNILKPEDTAVYYCAKAVYYRDPYGGDYWGQGTQVTVSS	low polyreactivity
QVQLVESGGGLVQAGGRLSLSSAASGITFRNYAMGWYRQAPGKERQLVAAISRRGGSTYYADSVKGRFTISRDNAKNTVYLQMNSLKPEDTAVYYCAKSPDTAKEYDYWGQGTQVTVSS	high polyreactivity
QVQLVESGGGLVQAGGSFRLSCAASGGTFDTYVMGWYRQAPGKERELVAVITRGASTYYADSVKGRFTISRDNAKNTVYLQMNSLKPEDTAVYYCAAAVYSPDYYRFWYSFDYWGQGTQVTVTS	low polyreactivity
QVQLVESGGGLVQAGGSFRLSCAASGRIFSPNAMGWYRQAPGKEREFVAAINDRGGNTYYADSVKGRFTISRDNAKNTVYLQMNSLKPEDTAVYYCAATVTVFYTRYYYWGQGTQVTVSS	high polyreactivity
QVQLVESGGGLVQAGGSGRLSCAASGSIFFAYGMGWYRQATGTERELVAAIPNSGTSTYYADSVKGRFTISRDNAKNSDYLQMNSLKPEDTAVFYCARDNEPDYYSYPYDYWGEGTQVTVSS	low polyreactivity
QVQLVESGGGLVQAGGSHRISCAASGNTFVINTMGWYRQAPGKERELVAGISRRGTSTYYADSVKGRFTISRDNAKNTVYLQMNSLKPEDTAVYYCAVYAEIVRYEYWGQGTQVTVSS	high polyreactivity
QVQLVESGGGLVQAGGSHRLSCAASGFIFYYYTRGWYRQAPGKERELVAAISRGRGSTYYADSVKGRFTISRDNAKNTVYLQMNSLKPEDTAVYYCARTDRRLGAHQGDYWGQGTQVTVSS	high polyreactivity
QVQLVESGGGLVQAGGSHRLSCAASGFTSAVNTMGWYRQAPGKEREFVASISRNGGSTYYADSVKGRFTITRDNAKNTVYLQINSLKPEDTAVYYCNTRVPNYAFRRSRYDYWGQGTQVTVSS	high polyreactivity
QVQLVESGGGLVQAGGSHRLSCAASGIIFGRYAMGSYIQAPGKERELVAAITSGGSTSYSDSVKGRFTISRDNAKNTVYLQMNSLKPEDTAVYYCAARGWYVRHPQNYGYWGQGTQVTVSS	high polyreactivity
QVQLVESGGGLVQAGGSHRLSCAASGIIFILYTMGWYRQAPGKERELVATISSGGGSTFYADSVKGRFTISRDNAKNTVYLQMNSLKPEDTAVYYCAAYPVFGYSYDYWGQGTQVTVSS	low polyreactivity
QVQLVESGGGLVQAGGSHRLSCAASGLIFYYYAMGWYRQAPGKERELVAAITWTAGSTSYADSVKGRFTISRDNAKNTVYLQMNSLKPEDTAVYYCAADYRHDTFSNEYDYWGQGTQVTVSS	low polyreactivity
QVQLVESGGGLVQAGGSHRLSCAASGRIFGTYAMGWYRQAPGKDRELVAAISFSGGSTYYADSVKGRFTISRDNAKNTVYLQMNSLKPDDTAVYYGAAGYRTYYGYRYGYWGQGTQVTVSS	high polyreactivity

Sequence	polyreactivity (PSR sort gate)
QVQLVESGGGLVQAGGSHRLSCAASGRIFNNNAMGWYRQAPGTEREFVAAISSGGGSTYYADSVKGRFTISRDNAKNTVYLQMNSLKPEDTAVYYCAARRHGRVDYSQGSRESYYWGQGTQVTVSS	high polyreactivity
QVQLVESGGGLVQAGGSHRLSCAASGRIFRGYPMGWYRPAPGKERELGAAITSRGGSTYADSVKGRFTISRDNAKNTVYLQMNSLKPEDSAVYYCNAGYRAYSAKLVFRGYPRYDYWGQGTQVTVSS	low polyreactivity
QVQLVESGGGLVQAGGSHRLSCAASGRIFRPYAMGWYRQAPGKEREFVATITRSVGRTYYADSVKGRFTISRDNAKNTVYLQMNSLKPEDTAVYYCATKYIRGTRADVYRFDYWGQGTQVTVSS	high polyreactivity
QVQLVESGGGLVQAGGSHRLSCAASGRTFAPNAMGWYRQAPGKERELVAAISSVGITYYADSVNGRFTISRDNAKNTVYLQMNSLNPEDTAVYYCAKVRKTRSITDGYGYWGQGTQVTVSS	low polyreactivity
QVQLVESGGGLVQAGGSHRLSCAASGRTFGGNVMGWYRPAHWKERELVAAISSTGDRTYYADSVKGRFTISRDNAKNTVYLQMYSLKPEDTAVYYCAARPAYRSSYYWGQGTQVTVSS	high polyreactivity
QVQLVESGGGLVQAGGSHRLSCAASGRTFKLYAMGWYRQAPGKERELVAAITESGRSTYYADSVKGRFTFSRDNAKNTVYLQMNSLKPEDTAVYYCAALGIGSYRRYSGYDYWGQGTQVTVSS	low polyreactivity
QVQLVESGGGLVQAGGSHRLSCAASGRTFQENGMGWYRQAPGKERELVATISQRGTSTYYADSVKGRFTISRDNAKNTVYLQMNSLKPEDTAVYYCARRRVYRWYTGDYWGQGTQVTVSS	low polyreactivity
QVQLVESGGGLVQAGGSHRLSCAASGRTFRINAMGWYRQAPGKERELVAAISRSGGSTYYADSVKGRFTISRDNAKNTVYLQMTSVKPEDTAVYYCAARPYYTWRYLPTKSGDYWGQGTLVTVSS	low polyreactivity
QVQLVESGGGLVQAGGSHRLSCAASGRTFYQNAMGWYRQAPGKERELVATISQRGGSTYYADSVKGRFTISRDTAKNTVYLQMNSLKPEDTAVYYCAKGRYAYSIWDDYWGQGTQVTVSS	low polyreactivity
QVQLVESGGGLVQAGGSHRLSCAASGRTFYRYVMGWYRQAPGKERELVAAIRSSGTSTYYADSVKGRFTISRDNAKNTVYLQINSLKPEDTAVNYCARDSYRGYVYSLDYWGQGNQVTVSS	high polyreactivity
QVQLVESGGGLVQAGGSHRLSCAASGRTFYTNAMGWYRQEPGKERELVARIRRGGTTNYADSVKGRFTISRDNAKNTVYLQMNILKPEDTAVSYCNARRHGGVQPFYFYRNQYELDYWGLGTQVTVSS	high polyreactivity
QVQLVESGGGLVQAGGSHRLSCAASGSIFGVYVMGWYRQAPGKERELVAAITRGASTNYADSVKGRFTISRDNAKNSVYLQMNSLKPEDTAVYYCAARQVSVSGHQYGYWGQGSQVTVSS	low polyreactivity
QVQLVESGGGLVQAGGSHRLSCAASGSIFYQYAMGSYRQAPGKERELVAAITWIGSTYYADSVKGRFTISRDNAKNTVYLQMNSLKPEDTAVYYCNTDPYVLQKYDYWGQGTQVTVSS	low polyreactivity
QVQLVESGGGLVQAGGSHRLSCAASGSILDTYAMGWYRQAPGKERELVAAISRGGRTYYADSVKGRFTLSRDNAKNTVYLQMNSLKPEDTAVYYCNTLTRLVYDGMGYWGQGTQVTVSS	high polyreactivity
QVQLVESGGGLVQAGGSHRLSCAASGSILWENAMGWYIQAPRKERELVATISVSGGGTYYADSVKGRFTISRDKAKNTDYLQMNSLKPEDTAVYYCNARYGYESQGWEDYWGQGTQVTVSS	low polyreactivity
QVQLVESGGGLVQAGGSHRLSCAASGSISRRYAMGWYRQAPGKERELVAAINQSGGRTYYADSVKGRFTISRDNAKNTVYLQMNSLKPEDTAVYYCAARLSGYDYWGQGTQVTVSS	high polyreactivity
QVQLVESGGGLVQAGGSHRLSCAASGSTFLNNAMGWYRQAPGKERELVATITSGGITNYADSVKGRFTISRDNAKNTVYLQMNSLKPEDTAVYYCNGETWGFTYYYWGQGTQVTVSS	low polyreactivity
QVQLVESGGGLVQAGGSHRLSCAASGSTFNYYAMGWYRQAPGKERELVAAISRGGSTYYADSVKGRFTISRDNAKNTVYLQMNSLKPEDNAVYYCHARPTRIYHGMGFWGQGTQVNVSS	low polyreactivity
QVQLVESGGGLVQAGGSHRLSCAASGSTFTWYPMGWYRQEPGKERELVADISYGGGSTYYADSVKGRFTISRDNAKNTVYLQMNSLKPEDTAVYYCAAESIPYYRYDYWGQGTQVTVSS	low polyreactivity
QVQLVESGGGLVQAGGSHRLSCAASGSTFVLYALGWYRQAPGKERELVAVISWSGGSTYYADSVKGRFTISRDNAKNTVYLQMNSLKPEDTAVYYCAATGWSSFYYRFDYWGQGTQVTVSS	low polyreactivity
QVQLVESGGGLVQAGGSHRLSCAASGSTFVSNAMGGYRQAPGKERELVAGITFSGGSTYYADSVKGRFTISRDNAKNAVYLQMNSVKPEDTAVYYCAKRTYPSFYYWGQGTKVTVSS	low polyreactivity
